{
  "source": "paper doi:10.1101/2020.08.27.268672",
  "about": "(bioRxiv, 2020)",
  "binders": {"B1": {"name": "DarB (natural protein, Bacillus subtilis 168)", "chain": "ISLQSDQLLEATVGQFMIEADKVAHVQVGNNLEHALLVLTKTGYTAIPVLDPSYRLHGLIGTNMIMNSIFGLERIEFEKLDQITVEEVMLTDIPRLHINDPIMKGFGMVINNGFVCVENDEQVFEGIFTRRVVLKELNKHIRSLNK"}},
  "key": {"SEC-MALS": {"molecular_target": "the molecule itself", "assay": "SEC-MALS"}, "[1]": {"molecular_target": "Rel^NTD (purified, in solution) (Bacillus subtilis 168, UniProt O54408 1-391)", "sequence (O54408 1-391)": "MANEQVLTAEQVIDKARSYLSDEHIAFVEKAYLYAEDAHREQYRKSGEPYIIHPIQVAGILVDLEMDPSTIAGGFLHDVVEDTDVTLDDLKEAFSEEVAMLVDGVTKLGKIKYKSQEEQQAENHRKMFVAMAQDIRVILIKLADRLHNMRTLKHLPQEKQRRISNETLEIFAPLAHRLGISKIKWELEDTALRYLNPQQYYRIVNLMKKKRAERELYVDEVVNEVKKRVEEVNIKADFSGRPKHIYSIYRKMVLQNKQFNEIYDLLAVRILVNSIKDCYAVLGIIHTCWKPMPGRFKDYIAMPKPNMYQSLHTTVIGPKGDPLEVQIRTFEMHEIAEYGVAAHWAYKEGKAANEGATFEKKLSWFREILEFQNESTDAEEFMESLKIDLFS", "assay": "ITC"}},
  "data": [
    {"binder": "B1", "values": [
      {"measurement": "stoichiometry N", "setting": "SEC-MALS", "value": 2},
      {"measurement": "Kd", "setting": "[1]", "value": 650, "unit": "nM"},
      {"measurement": "stoichiometry N", "setting": "[1]", "value": 1}
    ]}
  ]
}
